Measurements: publication PMC5986150

How the values were obtained:
[1] = target: 12-ADA CaM (Drosophila melanogaster calmodulin engineered with an N-terminal N-myristoyl transferase recognition peptide and labelled with 12-azidododecanoic acid) (Drosophila melanogaster) (UniProt P62152); test: pull-down; purified 12-ADA CaM (1, 2 or 5 mg mL^-1) conjugated to DBCO-Sepharose; clarified E. coli lysate with CaN (25 mM Tris pH 7.5, 3 mM MgCl2, 100 mM NaCl, 2 mM CaCl2) incubated with the resin at 4°C for 45 minutes - 1 hr; washes with 2 mM CaCl2, one with 1 M NaCl; eluted with 1 mM EGTA; semi-quantitative SDS-PAGE with Coomassie
[2] = target: 12-ADA CaM (Drosophila melanogaster calmodulin engineered with an N-terminal N-myristoyl transferase recognition peptide and labelled with 12-azidododecanoic acid) (Drosophila melanogaster) (UniProt P62152); test: pull-down; 12-ADA CaM conjugated to DBCO-Sepharose directly from clarified lysate, resin washed; clarified E. coli lysate with CaN (25 mM Tris pH 7.5, 3 mM MgCl2, 100 mM NaCl, 2 mM CaCl2) incubated with the resin at 4°C for 45 minutes - 1 hr; washes with 2 mM CaCl2, one with 1 M NaCl; eluted with 1 mM EGTA; semi-quantitative SDS-PAGE with Coomassie
[3] = target: Calmodulin of Calmodulin Sepharose 4B (GE Healthcare Life Sciences) (UniProt P62157); test: pull-down; commercial Calmodulin Sepharose 4B (GE); clarified E. coli lysate with CaN (2 mM CaCl2) incubated with the resin at 4°C, in parallel with the 12-ADA CaM resins; eluted with 1 mM EGTA; semi-quantitative SDS-PAGE with Coomassie

avg. amount of CaN purified from the resin [1]: 0.1 mg
avg. amount of CaN purified from the resin [2]: 0.6 mg
avg. amount of CaN purified from the resin [3]: 0.2 mg
Substance: Human calcineurin (CaN), α and β subunits (from UniProt Q08209 1-521; P63098 1-170) (complex)
